In paper PMC2185574 (The Journal of Cell Biology, 2000):

Target: T1, 6xHis-tagged Mrs6p, wild-type (S. cerevisiae, UniProt P32864 1-603)
T1 sequence: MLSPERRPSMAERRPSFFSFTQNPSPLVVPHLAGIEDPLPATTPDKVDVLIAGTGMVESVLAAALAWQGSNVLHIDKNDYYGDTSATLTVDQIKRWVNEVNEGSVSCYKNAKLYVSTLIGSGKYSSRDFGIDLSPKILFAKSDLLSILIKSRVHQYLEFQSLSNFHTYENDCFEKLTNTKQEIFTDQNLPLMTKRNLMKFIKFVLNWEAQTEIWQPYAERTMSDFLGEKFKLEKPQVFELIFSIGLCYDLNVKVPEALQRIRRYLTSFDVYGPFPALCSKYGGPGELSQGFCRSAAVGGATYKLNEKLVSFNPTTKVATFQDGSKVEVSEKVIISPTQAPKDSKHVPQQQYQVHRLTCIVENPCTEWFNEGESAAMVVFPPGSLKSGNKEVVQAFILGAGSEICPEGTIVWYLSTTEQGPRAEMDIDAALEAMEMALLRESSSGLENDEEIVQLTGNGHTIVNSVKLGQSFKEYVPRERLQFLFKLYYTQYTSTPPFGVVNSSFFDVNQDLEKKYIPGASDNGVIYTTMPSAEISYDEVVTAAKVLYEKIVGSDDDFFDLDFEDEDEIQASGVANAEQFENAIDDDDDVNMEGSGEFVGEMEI
Experiment: other fluorescence titration

B1: prenylated His6-tagged Rab3A (natural protein)
chain: MASATDSRYGQKESSDQNFDYMFKILIIGNSSVGKTSFLFRYADDSFTPAFVSTVGIDFKVKTIYRNDKRIKLQIWDTAGQERYRTITTAYYRGAMGFILMYDITNEESFNAVQDWSTQIKTYSWDNAQVLLVGNKCDMEDERVVSSERGRQLADHLGFEFFEASAKDNINVKQTFERLVDVICEKMSESLDTADPAVTGAKQGPQLSDQQVPPHQDCAC
modifications: prenylated (residues not stated)
Binder B1 has a Kd of 320 nM.
